# Measurements from PMC5715112.
# Molecular target: HIV integrase fused to the VP16 activation domain (pEF-VP16, CHO cells)
# Assay: mammalian two-hybrid luciferase reporter assay in CHO cells
# Conditions: 48 h after transfection; Firefly luciferase normalised to Renilla; parent: est. 1.4; read off a plot
row,Substance,response
1,"GAL4 DNA binding domain (DBD)-LEDGF IBD fusion (pM1, CHO cells) D366A",0.02
2,"GAL4 DNA binding domain (DBD)-LEDGF IBD fusion (pM1, CHO cells) F406A",0.04
3,"GAL4 DNA binding domain (DBD)-LEDGF IBD fusion (pM1, CHO cells) I365A",0.02
4,"GAL4 DNA binding domain (DBD)-LEDGF IBD fusion (pM1, CHO cells) K364A",0.08
5,"GAL4 DNA binding domain (DBD)-LEDGF IBD fusion (pM1, CHO cells) K402A",0.6
6,"GAL4 DNA binding domain (DBD)-LEDGF IBD fusion (pM1, CHO cells) K407A",3.3
7,"GAL4 DNA binding domain (DBD)-LEDGF IBD fusion (pM1, CHO cells) L363A",0.25
8,"GAL4 DNA binding domain (DBD)-LEDGF IBD fusion (pM1, CHO cells) L368A",0.01
9,"GAL4 DNA binding domain (DBD)-LEDGF IBD fusion (pM1, CHO cells) R405A",1.3
10,"GAL4 DNA binding domain (DBD)-LEDGF IBD fusion (pM1, CHO cells) V408A",0.4

# Molecular target: GAL4 DNA binding domain (DBD)-LEDGF IBD fusion (pM1, CHO cells)
# Assay: two-hybrid; mammalian three-hybrid competition in CHO cells: GAL4 DBD-IBD bait, HIV IN-VP16 prey and a free competitor from pEF-BOS-cyto; Firefly/Renilla luciferase
# Conditions: not given
row,Substance,percent inhibition of the luciferase signal of HIV IN-VP16 with Gal4-IBD [%]
1,"free HIV IN (competitor, pEF-BOS-cyto, CHO cells) (enzyme)",90
